Results on 16 molecules are retold here after US20240116985A1 (published 2024).

The target of assay [1] is T1, full-length beta-Catenin (Uniprot ID P35222) (Homo sapiens (Human), UniProt P35222 1-781).
T1 construct: The assay protocol says 'full-length beta-Catenin (Uniprot ID P35222)'; also called bCat; B-Catenin
T1 sequence: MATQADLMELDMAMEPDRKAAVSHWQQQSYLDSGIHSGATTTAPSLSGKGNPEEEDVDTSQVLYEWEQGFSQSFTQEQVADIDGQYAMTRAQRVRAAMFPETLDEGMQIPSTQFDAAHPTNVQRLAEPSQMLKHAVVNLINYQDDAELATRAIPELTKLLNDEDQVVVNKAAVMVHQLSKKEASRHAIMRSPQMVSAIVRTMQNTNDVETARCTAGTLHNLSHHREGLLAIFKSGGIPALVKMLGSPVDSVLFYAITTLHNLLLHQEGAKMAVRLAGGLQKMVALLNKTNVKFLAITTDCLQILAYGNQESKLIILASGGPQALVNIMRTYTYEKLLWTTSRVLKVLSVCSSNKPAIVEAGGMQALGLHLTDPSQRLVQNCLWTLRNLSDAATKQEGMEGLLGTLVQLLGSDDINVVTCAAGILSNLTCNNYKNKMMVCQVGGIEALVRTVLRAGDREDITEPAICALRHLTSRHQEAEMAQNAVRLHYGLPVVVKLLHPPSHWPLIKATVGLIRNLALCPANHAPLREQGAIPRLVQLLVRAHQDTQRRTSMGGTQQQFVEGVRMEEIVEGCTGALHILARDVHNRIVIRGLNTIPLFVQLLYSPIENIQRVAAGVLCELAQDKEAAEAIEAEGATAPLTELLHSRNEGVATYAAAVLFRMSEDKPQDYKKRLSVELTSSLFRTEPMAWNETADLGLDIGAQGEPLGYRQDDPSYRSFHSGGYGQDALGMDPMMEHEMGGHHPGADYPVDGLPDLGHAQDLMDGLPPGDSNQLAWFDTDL
Put plainly: fluorescence polarization competition; full-length beta-catenin, competitor 5FAM-TCF4(10-53) probe. Summed up: (§1)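 Plate incubated 60 minutes at 20° C. protected from light before reading. Concentrations given are final.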
A general note: In fluorescence polarisation assays a small probe gives low polarisation when free and higher when bound to something large.

Assay [2] addresses T2, full-length beta-Catenin (Uniprot ID P35222) (Homo sapiens (Human), UniProt P35222 2-781).
T2 construct: Also used here for the endogenous beta-catenin of the DLD1 TCF reporter cells; also called bCat; B-Catenin
T2 sequence: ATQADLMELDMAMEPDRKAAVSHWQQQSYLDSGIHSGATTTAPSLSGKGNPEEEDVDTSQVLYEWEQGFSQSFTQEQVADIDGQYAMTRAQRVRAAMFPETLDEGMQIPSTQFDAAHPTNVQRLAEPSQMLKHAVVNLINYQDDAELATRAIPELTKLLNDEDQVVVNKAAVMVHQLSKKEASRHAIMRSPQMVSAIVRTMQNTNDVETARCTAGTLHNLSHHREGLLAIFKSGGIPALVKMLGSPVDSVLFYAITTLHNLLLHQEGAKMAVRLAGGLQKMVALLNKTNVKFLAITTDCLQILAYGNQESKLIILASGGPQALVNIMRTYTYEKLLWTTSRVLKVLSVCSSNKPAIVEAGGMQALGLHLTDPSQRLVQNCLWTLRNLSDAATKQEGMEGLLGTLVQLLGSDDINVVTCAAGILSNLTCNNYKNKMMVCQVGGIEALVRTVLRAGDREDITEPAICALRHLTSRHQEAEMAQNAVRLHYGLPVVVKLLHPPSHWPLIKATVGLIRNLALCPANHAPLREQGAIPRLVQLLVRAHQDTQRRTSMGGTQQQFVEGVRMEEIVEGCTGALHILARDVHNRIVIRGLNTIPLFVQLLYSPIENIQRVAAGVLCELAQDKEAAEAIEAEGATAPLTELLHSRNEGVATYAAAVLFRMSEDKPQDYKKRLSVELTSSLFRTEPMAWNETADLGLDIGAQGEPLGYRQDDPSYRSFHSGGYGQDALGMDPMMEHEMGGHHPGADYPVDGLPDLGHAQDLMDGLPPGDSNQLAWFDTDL
The description is as above. Summed up: as §1

Assay [3] has as its target T3, B-cat-Halo (beta-catenin HaloTag construct expressed in HEK293 cells) (UniProt P35222 1-781).
T3 sequence (looked up): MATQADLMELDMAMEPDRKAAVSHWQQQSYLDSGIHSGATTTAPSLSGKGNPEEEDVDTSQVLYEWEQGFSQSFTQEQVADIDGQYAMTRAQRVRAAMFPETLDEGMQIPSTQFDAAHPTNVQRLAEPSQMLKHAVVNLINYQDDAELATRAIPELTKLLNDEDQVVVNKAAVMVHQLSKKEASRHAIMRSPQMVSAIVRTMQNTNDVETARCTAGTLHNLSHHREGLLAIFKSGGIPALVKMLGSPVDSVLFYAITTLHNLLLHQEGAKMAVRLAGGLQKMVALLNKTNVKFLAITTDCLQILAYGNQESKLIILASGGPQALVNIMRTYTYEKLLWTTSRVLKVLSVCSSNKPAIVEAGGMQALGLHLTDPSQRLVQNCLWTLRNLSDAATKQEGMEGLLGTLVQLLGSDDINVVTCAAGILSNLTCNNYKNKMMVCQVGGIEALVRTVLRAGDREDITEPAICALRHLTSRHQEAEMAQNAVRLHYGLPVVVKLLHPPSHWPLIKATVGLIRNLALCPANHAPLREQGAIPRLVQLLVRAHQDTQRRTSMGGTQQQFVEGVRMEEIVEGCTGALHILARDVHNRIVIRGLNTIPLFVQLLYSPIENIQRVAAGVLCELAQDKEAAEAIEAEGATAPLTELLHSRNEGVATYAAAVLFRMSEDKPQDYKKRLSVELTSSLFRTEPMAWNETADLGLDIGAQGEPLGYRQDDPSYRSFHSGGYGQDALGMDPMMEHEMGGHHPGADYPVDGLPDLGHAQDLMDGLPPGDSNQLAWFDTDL
Put plainly: cell-based or functional assay.

Starred links: 1 amine or outer side, 2 acyl side, 3 side chain; linkers in the order of their positions; H or OH if unused. Positions of bridges follow the written chain, without caps; N, C: chain ends. Non-standard residues stand in square brackets, D forms with d. Primed or numbered codes have the meaning given here. PyrS2(3) = (S)-3-amino-1-((pent-4-en-1-yloxy)carbonyl)pyrrolidine-3-carboxylic acid, stapling residue, C=CCCCOC(=O)N1CC[C@@](N[*:1])(C(=O)[*:2])C1; RdN(3) = (R)-4-(((allyloxy)carbonyl)(methyl)amino)-2-amino-2-methylbutanoic acid, stapling residue, C=CCOC(=O)N(C)CC[C@@](C)(N[*:1])C(=O)[*:2]; RdN″ = (R)-4-(((allyloxy)carbonyl)(methyl)amino)-2-amino-2-methylbutanoic acid (stapling residue), C=CCOC(=O)N(C)CC[C@@](C)(N[*:1])C(=O)[*:2]; B5(16) = 2-amino-2-(pent-4-en-1-yl)hept-6-enoic acid = 2,2-bis(4-pentenyl)glycine (stitching residue), C=CCCCC(CCCC=C)(N[*:1])C(=O)[*:2]; B5(18) = 2,2-bis(4-pentenyl)glycine (2-amino-2-(pent-4-en-1-yl)hept-6-enoic acid), stitching residue, C=CCCCC(CCCC=C)(N[*:1])C(=O)[*:2]; B5(4) = 2,2-bis(4-pentenyl)glycine = 2-amino-2-(pent-4-en-1-yl)hept-6-enoic acid (stitching residue), C=CCCCC(CCCC=C)(N[*:1])C(=O)[*:2]; B5(5) = 2,2-bis(4-pentenyl)glycine, 2-amino-2-(pent-4-en-1-yl)hept-6-enoic acid (stitching residue), C=CCCCC(CCCC=C)(N[*:1])C(=O)[*:2]; TfeGA = (S)-2-amino-3-((carboxymethyl)(2,2,2-trifluoroethyl)amino)propanoic acid, O=C([C@H](CN(CC(=O)[*:3])CC(F)(F)F)N[*:1])[*:2]; B5(19) = 2-amino-2-(pent-4-en-1-yl)hept-6-enoic acid (bis(4-pentenyl)glycine), C=CCCCC(CCCC=C)(N[*:1])C(=O)[*:2]; EtGA = (S)-2-amino-3-((carboxymethyl)(ethyl)amino)propanoic acid, CCN(CC(=O)[*:3])C[C@H](N[*:1])C(=O)[*:2]; TriAzDap = Dap whose side chain is a 1H-1,2,3-triazol-1-yl bearing the bracketed 4-substituent; B5″ = 2,2-bis(4-pentenyl)glycine, stitching residue, C=CCCCC(CCCC=C)(N[*:1])C(=O)[*:2]; B5 = 2-amino-2-(pent-4-en-1-yl)hept-6-enoic acid, C=CCCCC(CCCC=C)(N[*:1])C(=O)[*:2]; B5(28) = 2,2-bis(4-pentenyl)glycine, C=CCCCC(CCCC=C)(N[*:1])C(=O)[*:2]; Phe(3-COOH) = N[C@@H](Cc1cccc(C(=O)O)c1)C(=O)O; Trp(7-F) = N[C@@H](Cc1c[nH]c2c(F)cccc12)C(=O)O; S7 = C[C@@](CCCCCC=[*:3])(N[*:1])C(=O)[*:2]; Phe(2-Cl) = N[C@@H](Cc1ccccc1Cl)C(=O)O; Bta = N[C@@H](Cc1csc2ccccc12)C(=O)O; αAllylPro = C=CC[C@@]1(C(=O)O)CCCN1; tBuAla = CC(C)(C)C[C@H](N)C(=O)O; 3Thi = N[C@@H](Cc1ccsc1)C(=O)O; S8 = C=CCCCCCC[C@](C)(N)C(=O)O; NMeS = CN[C@@H](CO)C(=O)O

B1: I-153 (peptide)
peptide: Ac-ADI[RdN(3)]DEAAFQ[S7]FWA-NH2
modifications: staple 4-11
notes: also called Ac-Ala-Asp-Ile-RdN-Asp-Glu-Ala-Ala-Phe-Gln-S7-Phe-Trp-Ala-NH2
As a reminder, the IC50 is the concentration that inhibits the measured activity by half. B1: the IC50 in assay [1] came out at 2140 nM.

B2: I-152 (peptide)
peptide: Ac-ADI[RdN″]DEAAFA[S7]FWH-NH2
modifications: staple 4-11
notes: also called Ac-Ala-Asp-Ile-RdN-Asp-Glu-Ala-Ala-Phe-Ala-S7-Phe-Trp-His-NH2
Molecule B2 returned an IC50 in assay [1] of 5000 nM.

B3: I-148 (peptide)
peptide: Ac-ADI[RdN″]DEAAFQ[S7]FW-NH2
modifications: staple 4-11
notes: also called Ac-Ala-Asp-Ile-RdN-Asp-Glu-Ala-Ala-Phe-Gln-S7-Phe-Trp-NH2
B3 registered an IC50 in assay [1] of 2770 nM.

B4: I-155 (peptide)
peptide: ADIXDEAAFAXFWA
modifications: not fully specified; N-terminal acetyl (Ac); RdN at 4 and S7 at 11 (staple RdN-S7 by olefin metathesis); C-terminal amide (NH2)
notes: also called Ac-Ala-Asp-Ile-RdN-Asp-Glu-Ala-Ala-Phe-Ala-S7-Phe-Trp-Ala-NH2
In assay [1], B4 had an IC50 of 5000 nM. This IC50 is about 1.8-fold higher than that of the molecule before.
Broadly, the EC50 is the concentration giving half of the maximal effect. Read a high EC50 as weaker potency. The molecule Ac-[αAllylPro]DL[B5(28)]DEAAFN[S8]F[Bta]S-NH2 (staple 1-4, 4-11, Stapled peptide composition) [I-751] returned an EC50 in assay [2] of 29 nM.
For the molecule Ac-[αAllylPro]D[tBuAla][B5(18)]D[Phe(3-COOH)]AAFL[PyrS2(3)][Phe(2-Cl)][Bta]A-NH2 (staple 1-4, 4-11) [I-1851], in assay [3], the “NanoBRET Abs IC50” value turned out to be 3800 nM.

B5: I-172 (peptide)
peptide: Ac-[αAllylPro]DA[B5(4)]D[EtGA]AAFV[S8]FWQ-NH2
modifications: staple 1-4, 4-11; not fully specified
notes: also called Ac-PL3-Asp-Ala-B5-Asp-EtGA-Ala-Ala-Phe-Val-S8-Phe-Trp-Gln-NH2
In turn, B5 returned an IC50 in assay [1] of 5000 nM.
In the case of Ac-[αAllylPro]D[tBuAla][B5(18)]D[TfeGA]AAF[TriAzDap](CH2NMe2)[PyrS2(3)][3Thi][Bta]Q-NH2 (staple 1-4, 4-11; not fully specified) [I-1861], in assay [3], the “NanoBRET Abs IC50” value is 37300 nM.
Ac-[αAllylPro]DL[B5(4)]DEAAFN[S8]F[Bta][NMeS]-NH2 (staple 1-4, 4-11; also: earlier-eluting HPLC peak (staple isomer), Stapled peptide composition) [I-759]: in assay [2], it took 1530 nM to reach a half-maximal effect (EC50). This counts as single-digit micromolar.

B6: I-166 (peptide)
peptide: Ac-[αAllylPro]DA[B5(16)]DEAAFV[S8]F[Trp(7-F)]Q-NH2
modifications: staple 1-4, 4-11
notes: also called Ac-PL3-Asp-Ala-B5-Asp-Glu-Ala-Ala-Phe-Val-S8-Phe-7FW-Gln-NH2
B6 gave an IC50 in assay [1] of 2160 nM.
Take Ac-[αAllylPro]D[tBuAla][B5(18)]D[Phe(3-COOH)]AAFV[PyrS2(3)][Phe(2-Cl)][Bta]S-NH2 (staple 1-4, 4-11) [I-1850]: the “NanoBRET Abs IC50” value in assay [3] came out at 3800 nM.

B7: I-173 (peptide)
peptide: Ac-[αAllylPro]DA[B5]D[EtGA]AAFV[S8]FWQ-NH2
modifications: staple 1-4, 4-11; not fully specified
notes: as for B5
With B7, the IC50 in assay [1] stood at 3120 nM.
In assay [2], Ac-[αAllylPro]DL[B5(4)]DEAAFN[S8]F[Bta][dS]-NH2 (staple 1-4, 4-11, Stapled peptide composition) [I-756] came in with an EC50 of 56 nM. That is a double-digit nanomolar value.

B8: I-176 (peptide)
peptide: Ac-[αAllylPro]DI[B5(5)]DEAAFV[S8]FWH-NH2
modifications: staple 1-4, 4-11
notes: also called Ac-PL3-Asp-Ile-B5-Asp-Glu-Ala-Ala-Phe-Val-S8-Phe-Trp-His-NH2
In assay [1], B8 registered a concentration for half-maximal inhibition (IC50) of 1990 nM. This lies in the single-digit micromolar range.

B9: I-178 (peptide)
peptide: Ac-[αAllylPro]DA[B5(19)]DEAAFQ[S8]FWH-NH2
modifications: staple 1-4, 4-11
notes: also called Ac-PL3-Asp-Ala-B5-Asp-Glu-Ala-Ala-Phe-Gln-S8-Phe-Trp-His-NH2
In assay [1], B9 showed an IC50 of 1630 nM.
Ac-[αAllylPro]DL[B5″]DEAAFN[S8]F[Bta][NMeS]-NH2 (staple 1-4, 4-11, Stapled peptide composition) [I-760]: the EC50 in assay [2] worked out at 608 nM.
